The source of these data is patent US20240067711A1 (MEDYTOX, published 2024).

Assay [1] addresses T1, recombinant human VEGF165 (human, UniProt P15692-4 27-191). As to the kind of experiment: cell-based or functional assay.
The target in assay [2] is T1, recombinant human VEGF165. The experiment in a line: Octet red96E BLI, human VEGF165 amine-coupled on AR2G sensor, hexamer as analyte (0.0625-4 nM), 30° C. How it is done:
(§1) Affinity for VEGF was determined as follows. Octet red96E was used, and human VEGF immobilized on the biosensor AR2G was interacted with AAA0308, AAA0589, AAA0592, and AAA0600 used as analytes, and binding and dissociation values thereof were compared and measured. As human VEGF, recombinant human VEGF165 (Sinobiological company) was used, and VEGF was immobilized on the AR2G sensor chip by an amine coupling method. At this time, the amount of VEGF used was 10 μg/ml, and the degree of coating was confirmed using a wavelength of 5 nm.
(§2) During measurement, the rotation speed was set to 100, and the temperature was measured at 30° C.
(§3) The concentration of the sample was adjusted using a kinetic buffer (Molecular Device Co.). The antibody solution of each concentration was used as a binding phase for 5 minutes, and then switched to a kinetic buffer to form a dissociation phase for 30 minutes.
On the technique in general: Biolayer interferometry detects binding as a change in optical thickness at a sensor tip.

For assay [3], the target named is human VEGF (hVEGF), isoform not stated (human, UniProt P15692-4 27-191, limits assumed). As to the kind of experiment: ELISA on coated hVEGF (500 ng/ml), detection with anti-hIgG-Fc HRP, A450. How it is done: ELISA was performed to confirm the binding ability to VEGF. First, 100 μl of hVEGF was added to an immunoplate at a concentration of 500 ng/ml and caused to react at room temperature for 1 hour. 2% skim milk was dissolved in PBST, and then, 200 μl thereof was added onto the VEGF-coated wells and the reaction was caused to occur at room temperature for 2 hours. After the reaction, the well was washed three times using 300 μl of PBST, and then, Hz2, AAA0289, AAA0308, AAA0589, AAA0592, and AAA0600, which were purified above, were diluted starting from at a concentration of 100 ng/ml by two-fold to make a total of 11 samples. The samples were placed on the VEGF-coated well and the reaction was caused to occur at room temperature for 20 minutes. After the reaction, the well was washed three times using 300 μl of PBST, and then, anti-hIgG-Fc HRP (1:3000, Thermo) was added thereto at 100 μl/well and then reacted for 30 minutes. Then, the well was washed three times as described above, and the TMB (BioFx company) solution was added thereto at 100 μl/well to develop color at room temperature for 5 minutes. After the color development, 2N sulfuric acid was added at 50 μl/well to stop the color development, and the absorbance was measured at 450 nm, and results are shown in FIGS. 4A and 4B.

Assay [4] has as its target T2, FcγRI (R&D system company, 1257-Fc) (UniProt P12314 16-288). As to the kind of experiment: Octet; FcγRI loaded on anti-penta-His biosensor, antibody 100 nM as analyte.
In assay [5] the target is T1, recombinant human VEGF165. As to the kind of experiment: cell-based or functional assay. This is another data set of the same source.
The target of assay [6] is T1, recombinant human VEGF165. The experiment in a line: Octet red96E BLI, human VEGF165 amine-coupled on AR2G sensor, hexamer as analyte (0.0625-0.6 nM), 30° C. How it is done: as §1, §2, §3
Assay [7] addresses T2, FcγRI (R&D system company, 1257-Fc). The experiment in a line: Octet; FcγRI loaded on anti-penta-His biosensor, antibody 100 nM as analyte, 2 min association and 2 min dissociation. As to the method:
Binding evaluation for FcγR I, II, and III was performed as follows. Octet red96E was used, and […] FcγRI(R&D system company, 1257-Fc), […] FcγRII(R&D system company, 1597-CF), and […] FcγRIII(R&D system company, […]) were each loaded on the anti-pentia his biosensor, and a signal of about 5 nm was confirmed. In order to identify the reactivity of AAA0589 and AAA0592 to FcγRI, FcγRII, and FcγRIII, binding force was measured using an antibody concentration of 100 nM as an analyte. During measurement, rpm was set to 100, and the temperature was measured at 30° C. Samples were diluted using kinetic buffer (Molecular Device Co.). The antibody solution of each concentration was used as an association phase for 2 minutes, and then converted to a kinetic buffer to form a dissociation phase for 2 minutes.

The term Kd denotes a measure of binding affinity in units of concentration. In general, koff refers to the first-order rate constant of dissociation. A word on the kon: it is the rate constant with which the complex forms. The term EC50 (read off the curve) denotes the concentration needed to bring the measured effect to its halfway point. Lower therefore signals higher potency in that assay.

T2 sequence (P12314 16-288 limits assumed): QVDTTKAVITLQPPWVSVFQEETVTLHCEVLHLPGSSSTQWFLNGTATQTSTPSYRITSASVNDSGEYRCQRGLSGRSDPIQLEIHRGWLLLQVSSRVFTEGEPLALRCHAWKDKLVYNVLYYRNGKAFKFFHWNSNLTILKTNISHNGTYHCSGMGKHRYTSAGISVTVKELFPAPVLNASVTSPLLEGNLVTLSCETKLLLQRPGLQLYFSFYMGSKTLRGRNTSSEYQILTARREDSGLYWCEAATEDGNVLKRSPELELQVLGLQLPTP
T1 sequence (P15692 other isoform, or with tags, fused parts or gaps limits assumed): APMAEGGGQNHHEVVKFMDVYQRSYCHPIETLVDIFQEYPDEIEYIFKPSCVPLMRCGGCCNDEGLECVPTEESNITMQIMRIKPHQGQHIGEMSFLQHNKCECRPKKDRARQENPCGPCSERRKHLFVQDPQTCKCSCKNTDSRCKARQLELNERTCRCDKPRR
Chain of human VEGF (hVEGF), isoform not stated (P15692 other isoform, or with tags, fused parts or gaps limits assumed): as above

B1: Lu007-F hexamer AAA0592 (antibody, human IgG1, kappa, L234A L235A)
heavy: EVQLVESGGGLVQPGGSLRLSCAASGYDFTHYGMNWIRQAPGKGLEWVGWINTYTGEPTYAADFKRRFTFSLDTSKSTVYLQMNSLRAEDTAVYYCAKYPHYYGTSHWYFDVWGQGTLVTVSSASTKGPSVFPLAPSSKSTSGGTAALGCLVKDYFPEPVTVSWNSGALTSGVHTFPAVLQSSGLYSLSSVVTVPSSSLGTQTYICNVNHKPSNTKVDKKVEPKSCDKTHTCPPCPAPEAAGGPSVFLFPPKPKDTLMISRTPEVTCVVVDVSHEDPEVKFNWYVDGVEVHNAKTKPREEQYNSTYRVVSVLTVCLQDWLNGKEYKCKVSNKALPAGIEKTISKAKGQPREPQVYTLPPSRDELTKNQVSLTCLVKGFYPSDIAVEWESNGQPENNYKTTPPVLDSDGSFFLYSKLTVDKSRWQQGNVFSCSVMHEALHNHYTQKSLSLSPGKPTLYNVSLVMSDTAGTCY
light: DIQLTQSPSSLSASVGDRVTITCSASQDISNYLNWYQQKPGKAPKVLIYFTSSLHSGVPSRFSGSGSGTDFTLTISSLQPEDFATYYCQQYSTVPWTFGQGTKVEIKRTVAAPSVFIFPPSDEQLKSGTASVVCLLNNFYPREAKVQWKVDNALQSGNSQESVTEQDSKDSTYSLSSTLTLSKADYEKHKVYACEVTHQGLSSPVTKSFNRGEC
notes: also called Lu007 hexamer AAA0592
In the case of B1, the “IC50 of inhibition of the VEGF-induced calcium increase in HUVEC cells” value in assay [1] was found to be 0.2 nM. In assay [2], the Kd is under 0.001 nM, the koff is under 1e-07 s⁻¹ and the kon amounted to 666000 M⁻¹ s⁻¹. Further, in assay [3], the 50% effective concentration (EC50 (read off the curve)) is about 0.09 nM. Further, the binding result in assay [4] is listed as “no binding (tested: 100 nM)”. For the same molecule, the “IC50 (read off the curve)” value in assay [5] was about 0.3 nM.

B2: Aflibercept CL kappa hexamer AAA0600 (Fc fusion)
chain: SDTGRPFVEMYSEIPEIIHMTEGRELVIPCRVTSPNITVTLKKFPLDTLIPDGKRIIWDSRKGFIISNATYKEIGLLTCEATVNGHLYKTNYLTHRQTNTIIDVVLSPSHGIELSVGEKLVLNCTARTELNVGIDFNWEYPSSKHQHKKLVNRDLKTQSGSEMKKFLSTLTIDGVTRSDQGLYTCAASSGLMTKKNSTFVRVHEKTVAAPRTVAAPSVFIFPPSDEQLKSGTASVVCLLNNFYPREAKVQWKVDNALQSGNSQESVTEQDSKDSTYSLSSTLTLSKADYEKHKVYACEVTHQGLSSPVTKSFNRGESDKTHTCPPCPAPEAAGGPSVFLFPPKPKDTLMISRTPEVTCVVVDVSHEDPEVKFNWYVDGVEVHNAKTKPREEQYNSTYRVVSVLTVCLQDWLNGKEYKCKVSNKALPAGIEKTISKAKGQPREPQVYTLPPSRDELTKNQVSLTCLVKGFYPSDIAVEWESNGQPENNYKTTPPVLDSDGSFFLYSKLTVDKSRWQQGNVFSCSVMHHALHNHYTQKSLSLSPGKPTLYNVSLVMSDTAGTCY
For the molecule B2, in assay [1], the “IC50 of inhibition of the VEGF-induced calcium increase in HUVEC cells” value stood at 0.2 nM. In addition, in assay [3], the concentration for a half-maximal effect (EC50 (read off the curve)) was about 0.04 nM. Moreover, the Kd in assay [6] was 0.00203 nM. Moreover, the “IC50 (read off the curve)” value in assay [5] is about 0.2 nM.

B3: Hz2 humanized anti-VEGF antibody (monomer) (antibody, V domains shown)
VH: EVQLVESGGGLVQPGGSLRLSCAVSGIDLNRYSLTWIRQAPGKGLEWVAIVGGSGVTYYANWAKGRFTISRDDSKNTLYLQMNSLRAEDTAVYYCARGSDRSAYAPDIWGQGTLVTVSS
VL: DIQLTQSPSSLSASVGDRVTITCQSSQSIYSNNYLAWYQQKPGKAPKLLLYQASKLASGVPSRFSGSGSGTDFTLTISSLQPEDFATYYCLGVYDDDADNAFGQGTKVEIKR
Turning to B3, in assay [3], the “EC50 (read off the curve)” value was about 0.02 nM.

B4: Hz2-F hexamer AAA0589 (antibody, human IgG1, kappa, L234A L235A)
heavy: EVQLVESGGGLVQPGGSLRLSCAVSGIDLNRYSLTWIRQAPGKGLEWVAIVGGSGVTYYANWAKGRFTISRDDSKNTLYLQMNSLRAEDTAVYYCARGSDRSAYAPDIWGQGTLVTVSSASTKGPSVFPLAPSSKSTSGGTAALGCLVKDYFPEPVTVSWNSGALTSGVHTFPAVLQSSGLYSLSSVVTVPSSSLGTQTYICNVNHKPSNTKVDKKVEPKSCDKTHTCPPCPAPEAAGGPSVFLFPPKPKDTLMISRTPEVTCVVVDVSHEDPEVKFNWYVDGVEVHNAKTKPREEQYNSTYRVVSVLTVCLQDWLNGKEYKCKVSNKALPAGIEKTISKAKGQPREPQVYTLPPSRDELTKNQVSLTCLVKGFYPSDIAVEWESNGQPENNYKTTPPVLDSDGSFFLYSKLTVDKSRWQQGNVFSCSVMHHALHNHYTQKSLSLSPGKPTLYNVSLVMSDTAGTCY
light: DIQLTQSPSSLSASVGDRVTITCQSSQSIYSNNYLAWYQQKPGKAPKLLLYQASKLASGVPSRFSGSGSGTDFTLTISSLQPEDFATYYCLGVYDDDADNAFGQGTKVEIKRTVAAPSVFIFPPSDEQLKSGTASVVCLLNNFYPREAKVQWKVDNALQSGNSQESVTEQDSKDSTYSLSSTLTLSKADYEKHKVYACEVTHQGLSSPVTKSFNRGEC
notes: also called hexameric antibody AAA0589
B4: the “IC50 of inhibition of the VEGF-induced calcium increase in HUVEC cells” value in assay [1] turned out to be 0.2 nM. In assay [2], the Kd is under 0.001 nM, the koff was under 1e-07 s⁻¹ and the kon came to 208000 M⁻¹ s⁻¹. In addition, in assay [3], the “EC50 (read off the curve)” value was about 0.04 nM. The binding result in assay [4] is “no binding (tested: 100 nM)”. Further, the “IC50 (read off the curve)” value in assay [5] was about 0.2 nM.

B5: Omal013 (positive control antibody) (antibody, human IgG1, kappa)
heavy: not shown
light: DIQLTQSPSSLSASVGDRVTITCQSSQSIYSNNYLAWYQQKPGKAPKLLLYQASKLASGVPSRFSGSGSGTDFTLTISSLQPEDFATYYCLGVYDDDADNAFGQGTKVEIKRTVAAPSVFIFPPSDEQLKSGTASVVCLLNNFYPREAKVQWKVDNALQSGNSQESVTEQDSKDSTYSLSSTLTLSKADYEKHKVYACEVTHQGLSSPVTKSFNRGEC
notes: also called positive control group
Turning to B5, the binding result in assay [7] is recorded as “binds”.
